Measured values published in article PMC7327521.

Molecular target: (pY1-CTD)2, FAM-labelled tyrosine-phosphorylated CTD diheptad
Assay: fluorescence polarisation

“Spt6-tSH2 R1281E/S1284A/R1285E (from UniProt Q6FLB1 1250-1444) (domain or fragment)” showed a Kd of 48.3 µM.
